From article PMC10195141 (Acta Biochimica et Biophysica Sinica, 2023) come the findings set out here.

Values after ≈ are worked out from the molar mass of the structure shown.

The target in one experiment is T1, M. mulatta Gal-10 (Macaca mulatta, UniProt A0AA82WNZ0).
T1 sequence (A0AA82WNZ0 4-142): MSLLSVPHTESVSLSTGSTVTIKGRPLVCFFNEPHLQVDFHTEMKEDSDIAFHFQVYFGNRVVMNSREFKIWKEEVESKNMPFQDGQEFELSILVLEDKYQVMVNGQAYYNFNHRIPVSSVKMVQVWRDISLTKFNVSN
The experiment in a line: inhibition of hemagglutination of chicken erythrocytes. Format: cell-based. The settings on record: 10 mM Tris-HCl, 150 mM NaCl, pH 7.5, on ice, 60 min; carbohydrate binding site.

Experiment [1] addresses Macaca fascicularis galectin-10 (Macaca fascicularis). The experiment in a line: SEC.
Experiment [2] concerns the target Macaca mulatta galectin-10 (Macaca mulatta). In words: SEC.

For the compound `OC[C@H]1O[C@@H](O[C@H]2[C@H](O)[C@@H](O)C(O)O[C@@H]2CO)[C@H](O)[C@@H](O)[C@H]1O` (stereo partly drawn) [lactose], the MIC on M. mulatta Gal-10 was 6.25 mM (≈ 2140 µg/mL).
For the compound “Macaca fascicularis galectin-10 (natural protein)”, the stoichiometry N in experiment [1] is 2.
“Macaca mulatta galectin-10 (natural protein)” yielded a stoichiometry N in experiment [2] of 2.
